The nature of series [1]: retention of antimicrobial/biological activity after sterilization. The settings on record: peptide coated on a substrate, ethylene oxide sterilization. The text has this: In a useful embodiment of the present invention, the antimicrobial peptides may retain antibacterial activity after a dental device coated with the antimicrobial, peptide is sterilized.
Another series relates to Staphylococcus aureus. Put plainly: in-vitro assay of immobilized peptide on 316L stainless steel pins. It counts as cell-based. The settings on record: peptide covalently bonded to parylene coated stainless steel pins, after ethylene oxide sterilization; data not shown. The text has this:
Medical standard alloy 316L stainless steel pins were coated with an antimicrobial peptide layer to determine the efficacy of an immobilized antimicrobial peptide. The pins were coated with a tie layer. A parylene coating containing a reactive molecule specific for the N-terminus region of the peptide (“Photopolymer”) was then applied over the tie layer. The peptide WLBU-2 (SEQ ID NO. 179) was applied to the parylene coating and exposed to UV light to facilitate covalent bonding of the peptide with the parylene coating. Parylene coated stainless steel pins and non-coated stainless steel pins were used as controls. All samples and controls were subjected to ethylene oxide sterilization. The coated samples were placed in 75% relative humidity overnight.

From patent publication US20100150985A1, “Dental Implant, Endodontic Instrument, and Dental Filling Material Coated with a Peptide-Based Antimicrobial and Methods of Using and Making the Same” (priority 2008, published 2010) come the findings set out here.

With “RRWVRRVRRVWRRVVRVVRRWVVRR (RRWVRRVRRVWRRVVRVVRRWVRR; Artificial peptide derived from HIV-1) [WLBU-2, Lytic Base Unit peptide]”, the “antimicrobial activity after sterilization” value in series [1] was “retained antimicrobial activity”. The “efficacy of immobilized antimicrobial peptide” value in the series on Staphylococcus aureus is “efficacy against Staphylococcus aureus”.
